Data on 1 substance can be found in publication PMC3124082.

The target of the experiment is Putative NADPH-quinone reductase. Briefly: SAXS.

As for “Putative NADPH-quinone reductase (natural protein)”, the fraction of dimer in the oligomer mixture stood at 47% and the fraction of tetramer in the oligomer mixture is 53%.
